Earlier results, collected in paper PMC3652491.

Biological target: Nef peptide 12-residue peptide (Human immunodeficiency virus 1) (UniProt P04324)

In the case of Hck SH3 (from UniProt P08631), the Kd is listed as 90 µM.
